1 molecule from paper PMC10344929, “Crosstalk between regulatory elements in disordered TRPV4 N-terminus modulates lipid-dependent channel activity” (Nature Communications, 2023) can be followed below.

The target in the experiment is T1, Gallus gallus TRPV4 isolated ankyrin repeat domain (residues 135-382) (Gallus gallus, UniProt A0A1D5PXA5 135-382).
T1 construct: TRPV4, Gallus gallus, ankyrin repeat domain, residues 135-382; Made from the NTD vector by Gibson deletion; also called ARD; TRPV4 ARD; source: E. coli BL21-Gold(DE3), purified (Ni-NTA, Ulp-1 cleavage, reverse Ni-NTA, SEC); not shown: His6SUMO, N-terminal, cleaved
T1 sequence (A0A1D5PXA5 135-382): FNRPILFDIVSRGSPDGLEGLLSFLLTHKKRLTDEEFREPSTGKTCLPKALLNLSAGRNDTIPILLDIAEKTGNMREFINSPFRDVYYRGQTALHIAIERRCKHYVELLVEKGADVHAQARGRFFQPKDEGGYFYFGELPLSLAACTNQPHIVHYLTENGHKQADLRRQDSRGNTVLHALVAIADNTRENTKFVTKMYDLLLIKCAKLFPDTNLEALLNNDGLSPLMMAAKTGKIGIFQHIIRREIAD
In words: cross-linking; DSS-H12/D12 cross-linking mass spectrometry; isolated IDR and ARD mixed 1:1; 1.5 nmol DSS per ug protein, 2 h at 4 °C, 1 mg/mL protein, 20 mM HEPES pH 7, 300 mM NaCl. The following applies: both partners purified.

B1: Gallus gallus TRPV4 isolated intrinsically disordered region (residues 2-134) (domain or fragment, UniProt A0A1D5PXA5 2-134, looked up)
chain: ADPEDPRDAGDVLGDDSFPLSSLANLFEVEDTPSPAEPSRGPPGAVDGKQNLRMKFHGAFRKGPPKPMELLESTIYESSVVPAPKKAPMDSLFDYGTYRQHPSENKRWRRRVVEKPVAGTKGPAPNPPPILKV
notes: TRPV4, Gallus gallus, N-terminal intrinsically disordered region, residues 2-134; Made from the NTD vector by Gibson deletion; also called IDR; TRPV4 IDR; source: E. coli BL21-Gold(DE3), purified (Ni-NTA, Ulp-1 cleavage, reverse Ni-NTA, SEC); not shown: His6SUMO, N-terminal, cleaved
As to B1, the binding result was “binds”.
